Measured values as given in patent US8932558B2, “Multi-subunit biological complexes for treatment of plaque-associated diseases” (Plaxgen Inc, priority 2007, dated 2015).

Experiments:
Type in all cases: biochemical
[1] = biological target: T1, pre-assembled amyloid plaque like complexes (iron-loaded abeta42 templates) (Homo sapiens, UniProt P00747); test: Dissolution of pre-assembled amyloid plaque like complexes; details: 20 ng, 37° C., 1 hr
T1 construct: Lys-Plasminogen (PLG); purchased Enzyme Research Laboratories (IN, USA)
Description: In order to identify lead compounds able to dissolve the pre-assembled amyloid plaque like complexes, the preceding experiments are repeated to assemble complexes in three cycles using the iron-loaded abeta42 templates. Then, 50 μl of the resulting complexes is incubated with test compound/s (50 ng to 1 μg) for 1 hr at 37° C. followed by washing and analysis of the complexes for their dissolution. For example, 50 μl of the pre-assembled complexes is mixed with u-PA or t-PA (20 ng) at 37° C. for 1 hr followed by washing and protein estimation or gel analysis of the resultant complexes. […] This approach is also useful to optimize u-PA (PGN54) molecule for use as a therapeutic lead to treat patients with advanced amyloid diseases such as Alzheimer. Reducing the amyloid plaque burden or plaque build-up in the cerebral arteries would greatly improve or reverse the pathological symptoms associated with the amyloid diseases. In addition, to test the hypothesis of amyloid plaque burden reduction as an effective strategy, optimized u-PA or other plasminogen activators are used in the animal models of Alzheimer's disease.

[2] = biological target: T2, iron-loaded abeta40 templates plaque complex (Homo sapiens, UniProt P00747); test: Proteolysis of plaque complexes assembled on iron-loaded abeta40 templates
T2 construct: Lys-Plasminogen (PLG); purchased Enzyme Research Laboratories (IN, USA)
Description: In order to verify the preceding results, such experiments are repeated using iron-loaded abeta40 templates for plaque complex formation. Proteins binding to the abeta40 templates appear to be cleared when they are treated with the same proteases.

[3] = system: iron loaded abeta42 aggregates mixed with CE proteins; test: Proteolysis of amyloid plaque complexes assembled on iron loaded abeta42 aggregates; details: 20 ng
Description: This example illustrates the use of the invention to evaluate the proteolytic degradation of the amyloid complexes. For example, iron loaded abeta42 aggregates are mixed with CE proteins, and the resulting template complexes are treated with five different serine proteases. More specifically, nine independent reactions are carried out with each containing 5.0 μg of the iron-loaded aggregates of abeta42 and 6.0 μg of the CE proteins. After incubation and washing, the complexes are suspended in 50 μl of PBS. The nine complexes are sub-divided into two groups, with six individual complexes comprising Group I and three complexes comprising Group II. In order to interrogate the role of the plasminogen (PLG) activation system, which is implicated in the catabolism of amyloid peptides as well as the pathobiology of amyloid diseases (Melchor J P et al, 2003; Van Nostrand W E et al, 1999; Kranenburg O, 2005), the Group II complexes are subjected to another cycle of binding with both PLG (0.5 μg) and BSA (0.5 μg) proteins. After binding and washing, the PLG and BSA bound plaques complexes are suspended in 50 μl of PBS.
For proteolysis analysis, five of the six Group I template complexes are incubated with 20 ng of each protease (plasnin, chymotrypsin, trypsin, proteinase K and urokinase). The remaining complex is used as a control without protease treatment. Among three complexes of the Group II containing PLG attached to them, one is treated with u-PA (20 ng), a second is treated with t-PA (20 ng) and the third complex is used as a control without protease treatment. All these plaque complexes are incubated at 37° C. for 1 hr and after every 15 min, the tubes are gently tapped in order to encourage mixing. After washing, both the proteases-treated and control plaque complexes are suspended in 20 μl PBS. The complexes are boiled for 10 min with sample solubilizing buffer and loaded in to 4-20% gradient SDS-PAGE. Further, the gels are processed for silver staining and the results are documented for further analysis.

[4] = system: thrombus generated from the in vitro assembled plaques complexes; test: Thrombolytic assay with PLG cascade proteins; details: thrombus from cholesterol, lipids, CP and CO complexes
Description: To examine this, both PLG and PLG activators are used to target these clots. Thrombolytic assays are carried out in 100 μl reaction containing thrombus, generated from 100 μl of aggregates or plaque complexes, 1 μg of PLG and 20 ng of u-PA or t-PA in PBS buffer. The reactions are incubated at 37° C. for 1 hr and after every 15 min the tubes are gently tapped to mix the contents. After 1 hr incubation, 1 ml of PBS is added to all the tubes and the samples are visually examined for dissolution of the thrombus.
The thrombus generated from the cholesterol, lipids, CP, and CO complexes are incubated separately with PLG, u-PA and t-PA to examine whether these proteins individually could dissolve the clots.
This could be due to the inhibition of u-PA by the PAI-1 thereby preventing the activation of the PLG. In the next experiment, the aggregates of CP-Cholesterol, CP-Lipids, CP-Cholesterol-Lipids, Cholesterol-Lipids, CO-Cholesterol and CO-Lipids are individually used in CPA for five cycles to assemble complexes followed by their thrombus generation.
The example depicted in FIG. 18 illustrates the dissolution of thrombi by PLG and u-PA. […] Both the clots and the dissolved complexes are further examined under microscope to confirm the visual examination (FIGS. 18a, b, c and d). The thrombus formed in the urine is also dissolved by the action of PLG and u-PA.

T1 sequence (P00747 97-810, one chain of several): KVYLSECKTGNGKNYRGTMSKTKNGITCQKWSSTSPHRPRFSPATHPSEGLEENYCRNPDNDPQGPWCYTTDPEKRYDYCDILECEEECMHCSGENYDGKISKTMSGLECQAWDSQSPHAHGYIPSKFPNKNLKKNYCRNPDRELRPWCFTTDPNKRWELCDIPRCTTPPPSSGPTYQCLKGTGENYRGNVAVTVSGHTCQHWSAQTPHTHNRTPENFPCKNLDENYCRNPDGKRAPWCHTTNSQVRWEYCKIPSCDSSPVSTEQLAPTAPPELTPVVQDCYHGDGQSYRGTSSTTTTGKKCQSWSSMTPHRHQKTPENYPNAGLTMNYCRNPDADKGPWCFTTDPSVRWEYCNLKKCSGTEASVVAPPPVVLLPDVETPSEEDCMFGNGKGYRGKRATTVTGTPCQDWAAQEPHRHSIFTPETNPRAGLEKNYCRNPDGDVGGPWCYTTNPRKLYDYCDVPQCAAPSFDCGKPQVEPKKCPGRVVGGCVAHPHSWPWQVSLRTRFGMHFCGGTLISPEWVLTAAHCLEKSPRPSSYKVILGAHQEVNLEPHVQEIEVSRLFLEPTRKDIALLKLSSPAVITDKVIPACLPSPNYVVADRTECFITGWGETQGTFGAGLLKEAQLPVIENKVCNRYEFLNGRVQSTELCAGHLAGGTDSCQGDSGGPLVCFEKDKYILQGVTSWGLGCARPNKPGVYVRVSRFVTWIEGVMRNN
T2 sequence (P00747 97-810, one chain of several): as above

For t-PA: tissue-type plasminogen activator, the “Protein concentration of pre-assembled complexes after incubation” value [1] was “show reduction in the protein concentration”, the “Activation of PLG-bound complex” value [2] was “activate the PLG-bound complex” and the “Activation of PLG on PLG/BSA-attached complexes” value [3] was “the inactive PLG is converted into active plasmin”. The “Dissolution of thrombus, protein incubated separately” value [4] was “did not show any dissolution”.
